Measured values as given in US20210355219A1 (HARPOON THERAPEUTICS, published 2021).

Experiments:
[1] = target: T1, C00703 huCD40::Fc (human); assay: ELISA, immobilized huCD40, purified protein
T1 construct: also called human CD40 protein; immobilized huCD40

[2] = target: T1, C00703 huCD40::Fc; assay: ELISA, immobilized huCD40; the reference of the shift
[3] = target: CD40 on purified human B cells (human, UniProt P25942 21-277); assay: cell-based or functional assay
[4] = target: T1, C00703 huCD40::Fc; assay: ELISA, immobilized huCD40; EC50 shift against unmasked anti-CD40

T1 sequence (chain, as listed by the source limits assumed): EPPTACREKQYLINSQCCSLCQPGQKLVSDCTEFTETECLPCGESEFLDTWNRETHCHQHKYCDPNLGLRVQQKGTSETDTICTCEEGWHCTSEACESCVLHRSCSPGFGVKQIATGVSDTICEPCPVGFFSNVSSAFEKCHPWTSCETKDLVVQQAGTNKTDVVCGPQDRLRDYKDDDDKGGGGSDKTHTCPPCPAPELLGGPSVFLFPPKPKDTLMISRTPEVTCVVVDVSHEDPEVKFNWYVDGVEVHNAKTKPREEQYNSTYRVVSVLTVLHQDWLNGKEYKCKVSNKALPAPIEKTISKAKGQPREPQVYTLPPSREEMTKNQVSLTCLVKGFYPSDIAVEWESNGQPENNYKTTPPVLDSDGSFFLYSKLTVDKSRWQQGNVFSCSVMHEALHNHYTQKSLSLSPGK
Sequence of CD40 on purified human B cells (P25942 21-277): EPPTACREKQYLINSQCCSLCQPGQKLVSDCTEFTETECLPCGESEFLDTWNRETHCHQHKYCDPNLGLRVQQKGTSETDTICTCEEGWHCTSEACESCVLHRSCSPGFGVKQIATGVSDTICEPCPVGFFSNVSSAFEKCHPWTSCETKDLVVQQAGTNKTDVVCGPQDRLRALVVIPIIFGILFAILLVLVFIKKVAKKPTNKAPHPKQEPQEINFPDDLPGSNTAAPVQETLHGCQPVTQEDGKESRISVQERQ

EC50 [1] [nM]	Binding shift [2] [fold]	Activity shift, B cell activation [3] [fold]	EC50 (M), B cell activation (percentage of CD86 positive B cells, flow cytometry, 48 hours) [3] [M]	Binding shift [4] [fold]	Binder
0.48	1	1	2.1e-11	–	Unmasked anti-CD40 C00697, C2764 (aCD40 Heavy Chain GDSE) (antibody, human IgG1, kappa, V domains shown, Anti-CD40 light chain without an anti-Alb domain; also called Active mimic C00697, C2764; control active mimic) VH: not shown VL: DIQMTQSPSSVSASVGDRVTITCRASQGIYSWLAWYQQKPGKAPNLLIYTASTLQSGVPSRFSGSGSGTDFTLTISSLQPEDFATYYCQQANIFPLTFGGGTKVEIKR
25	–	2000	–	52	anti-Alb mask070 anti-CD40 C2882, C2764 (aCD40 Heavy Chain GDSE) (bispecific antibody, human IgG1, kappa, Non-cleavable linker; Purified by Protein A. Same light chain as m2 but with the GDSE heavy chain C2764; also called C2882 aAlb-CD40-mask070) heavy: not shown light: EVQLVESGGGLVQPGNSLTLSCAASGFTFSKFGMSWVRQARAASAGQGLEWVSSISGSGRDTLYADSVKGRFTISRDNAKTTLYLQMNSLRPEDTAVYYCTIGGSLSVSSQGTLVTVSSGGGGSGGGSGGGGSGGGSDIQMTQSPSSVSASVGDRVTITCRASQGIYSWLAWYQQKPGKAPNLLIYTASTLQSGVPSRFSGSGSGTDFTLTISSLQPEDFATYYCQQANIFPLTFGGGTKVEIKRTVAAPSVFIFPPSDEQLKSGTASVVCLLNNFYPREAKVQWKVDNALQSGNSQESVTEQDSKDSTYSLSSTLTLSKADYEKHKVYACEVTHQGLSSPVTKSFNRGEC
